From PMC6288126, “Structural insights into DDA1 function as a core component of the CRL4-DDB1 ubiquitin ligase” (Cell Discovery, 2018)

Target: T1, DDB1 (DNA damage-binding protein 1) (human, UniProt Q16531 1-1140)
T1 construct: triple beta-propeller (BPA, BPB, BPC) and CTD; also called free DDB1; purified DDB1; source: purified recombinant protein
Assay: BLI; affinity-tagged DDA1 FL and fragments immobilised on the probe as ligand, free DDB1 as analyte at different concentrations; Kd from the dose response curve of maximal binding signals
Settings: both partners purified

T1 sequence (Q16531 whole entry): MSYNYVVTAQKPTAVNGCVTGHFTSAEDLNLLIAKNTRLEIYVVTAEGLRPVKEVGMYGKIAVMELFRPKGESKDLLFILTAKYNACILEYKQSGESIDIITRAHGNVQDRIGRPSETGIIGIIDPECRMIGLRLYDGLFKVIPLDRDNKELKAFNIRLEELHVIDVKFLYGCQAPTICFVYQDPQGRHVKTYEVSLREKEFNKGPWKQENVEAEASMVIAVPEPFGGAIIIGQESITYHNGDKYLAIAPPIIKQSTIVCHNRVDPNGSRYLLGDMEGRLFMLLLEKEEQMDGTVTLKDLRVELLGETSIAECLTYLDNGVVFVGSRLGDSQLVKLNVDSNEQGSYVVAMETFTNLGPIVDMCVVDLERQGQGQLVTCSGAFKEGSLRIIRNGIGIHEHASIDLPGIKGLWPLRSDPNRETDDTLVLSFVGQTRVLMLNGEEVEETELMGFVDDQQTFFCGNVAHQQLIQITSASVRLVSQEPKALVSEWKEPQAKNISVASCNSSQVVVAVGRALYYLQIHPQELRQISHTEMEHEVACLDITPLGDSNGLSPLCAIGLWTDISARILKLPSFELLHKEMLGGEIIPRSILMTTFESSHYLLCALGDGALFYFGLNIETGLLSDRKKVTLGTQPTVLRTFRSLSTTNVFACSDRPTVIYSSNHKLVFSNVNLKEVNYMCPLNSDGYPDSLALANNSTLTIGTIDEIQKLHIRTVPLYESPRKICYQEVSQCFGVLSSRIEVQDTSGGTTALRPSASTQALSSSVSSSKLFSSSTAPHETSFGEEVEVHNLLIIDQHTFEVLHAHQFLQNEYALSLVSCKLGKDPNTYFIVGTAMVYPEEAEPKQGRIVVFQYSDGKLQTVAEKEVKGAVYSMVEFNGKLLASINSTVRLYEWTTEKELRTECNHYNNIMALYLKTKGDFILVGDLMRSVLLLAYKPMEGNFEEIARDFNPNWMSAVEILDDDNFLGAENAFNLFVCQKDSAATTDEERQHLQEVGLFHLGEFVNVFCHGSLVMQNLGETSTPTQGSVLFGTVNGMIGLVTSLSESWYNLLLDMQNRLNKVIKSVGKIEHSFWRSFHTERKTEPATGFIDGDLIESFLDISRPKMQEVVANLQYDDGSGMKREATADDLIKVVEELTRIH

B1: Affinity-tagged DDA1-NT (1-28 aa) (bio-layer interferometry) (domain or fragment)
chain: not shown
notes: DDA1, N-terminal fragment DDA1-NT (1-28 aa); it may be the GST fusion of m3; source: purified recombinant protein
**Q.** How did the Kd turn out when B1 was run?
**A.** ~45 nM
